# B1: murine receptor-type protein tyrosine phosphatase-κ (RPTPκ) precursor protein (receptor)
# chain: ALGQFSAGGCTFDDGPGACDYHQDLYDDFEWVHVSAQEPHYLPPEMPQGSYMVVDSSNHDPGEKARLQLPTMKENDTHCIDFSYLLYSQKGLNPGTLNILVRVNKGPLANPIWNVTGFTGRDWLRAELAVSTFWPNEYQVIFEAEVSGGRSGYIAIDDIQVLSYPCDKSPHFLRLGDVEVNAGQNATFQCIATGRDAVHNKLWLQRRNGEDIPVAQTKNINHRRFAASFRLQEVTKTDQDLYRCVTQSERGSGVSNFAQLIVREPPRPIAPPQLLGVGPTYLLIQLNANSIIGDGPIILKEVEYRMTSGSWTETHAVNAPTYKLWHLDPDTEYEIRVLLTRPGEGGTGLPGPPLITRTKCAEPMRTPKTLKIAEIQARRIAVDWESLGYNITRCHTFNVTICYHYFRGHNESRADCLDMDPKAPQHVVNHLPPYTNVSLKMILTNPEGRKESEETIIQTDEDVPGPVPVKSLQGTSFENKIFLNWKEPLEPNGIITQYEVSYSSIRSFDPAVPVAGPPQTVSNLWNSTHHVFMHLHPGTTYQFFIRASTVKGFGPATAINVTTNISAPSLPDYEGVDASLNETATTITVLLRPAQAKGAPISAYQIVVEQLHPHRTKREAGAMECYQVPVTYQNALSGGAPYYFAAELPPGNLPEPAPFTVGDNRTYKGFWNPPLAPRKGYNIYFQAMSSVEKETKTQCVRIATKAAATEEPEVIPDPAKQTDRVVKIAGISAGILVFILLLLVVIVIVKKSKLAKKRKDAMGNTRQEMTHMVNAMDRSYADQSTLHAEDPLSLTFMDQHNFSPRLPNDPLVPTAVLDENHSATAESSRLLDVPRYLCEGTESPYQTGQLHPAIRVADLLQHINLMKTSDSYGFKEEYESFFEGQSASWDVAKKDQNRAKNRYGNIIAYDHSRVILQPVEDDPSSDYINANYIDIWLYRDGYQRPSHYIATQGPVHETVYDFWRMVWQEQSACIVMVTNLVEVGRVKCYKYWPDDTEVYGDFKVTCVEMEPLAEYVVRTFTLERRGYNEIREVKQFHFTGWPDHGVPYHATGLLSFIRRVKLSNPPSAGPIVVHCSAGAGRTGCYIVIDIMLDMAEREGVVDIYNCVKALRSRRINMVQTEEQYIFIHDAILEACLCGETAIPVCEFKAAYFDMIRIDSQTNSSHLKDEFQTLNSVTPRLQAEDCSIACLPRNHDKNRFMDMLPPDRCLPFLITIDGESSNYINAALMDSYRQPAAFIVTQYPLPNTVKDFWRLVYDYGCTSIVMLNEVDLSQGCPQYWPEEGMLRYGPIQVECMSCSMDCDVINRIFRICNLTRPQEGYLMVQQFQYLGWASHREVPGSKRSFLKLILQVEKWQEECEEGEGRTIIHCLNGGGRSGMFCAIGIVVEMVKRQNVVDVFHAVKTLRNSKPNMVEAPEQYRFCYDVALEYLESS
# notes: Full-length cDNA expressed in HeLa, COS, Drosophila S2 and rat L6 cells, tested on cells or in their lysates; It is partly cleaved at RTKR (640-643) into 110 kDa and 100 kDa products; also called RPTPase-κ; wt RPTPκ
# How the values were obtained:
# [1] = target: the molecule itself; assay: co-aggregation of diI-labelled and unlabelled S2 cells, fluorescence microscopy
# Text: FIGS. 23A–23C. […] Two different cell populations, one of which had been labeled with the fluorescent dye diI (J. Schiessinger et al. Science 195, 307, (1977)), were allowed to co-aggregate and the resulting aggregates inspected by visible and fluorescence microscopy. diI-fluorescence is white in the photographs.
# [2] = target: [32P]-tyrosine phosphorylated myelin basic protein; assay: cell-based or functional assay
# [3] = target: B1; assay: cell-to-substrate adhesion, L6 cells on a K2AP-coated surface
# [4] = target: B1; assay: cell-to-substrate adhesion, induced S2-R-PTP-κ cells on the coated dish
# Sequence of [32P]-tyrosine phosphorylated myelin basic protein (P02687 whole entry): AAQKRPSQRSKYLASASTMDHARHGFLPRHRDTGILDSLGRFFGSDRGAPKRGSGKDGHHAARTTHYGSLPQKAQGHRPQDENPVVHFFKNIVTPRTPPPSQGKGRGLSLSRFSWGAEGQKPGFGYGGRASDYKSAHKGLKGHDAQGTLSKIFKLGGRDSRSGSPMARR
binder,measurement,setting,value
B1,binding result,[1],binds
same,PTPase activity in immune complexes (release of [32P]-phosphate),[2],~3 fold
"K2AP fusion protein (amino acids 1-639 of the RPTPκ proprotein fused to human placental alkaline phosphatase) (other, Secreted from baculovirus-infected High-Five cells and about 90% pure; K2AP-a was eluted at alkaline pH and K2AP-b with 50% ethylene glycol; they are the same protein; also called K2AP-a; K2AP-b; not shown: human placental alkaline phosphatase, fused in-frame as a tag) ALGQFSAGGCTFDDGPGACDYHQDLYDDFEWVHVSAQEPHYLPPEMPQGSYMVVDSSNHDPGEKARLQLPTMKENDTHCIDFSYLLYSQKGLNPGTLNILVRVNKGPLANPIWNVTGFTGRDWLRAELAVSTFWPNEYQVIFEAEVSGGRSGYIAIDDIQVLSYPCDKSPHFLRLGDVEVNAGQNATFQCIATGRDAVHNKLWLQRRNGEDIPVAQTKNINHRRFAASFRLQEVTKTDQDLYRCVTQSERGSGVSNFAQLIVREPPRPIAPPQLLGVGPTYLLIQLNANSIIGDGPIILKEVEYRMTSGSWTETHAVNAPTYKLWHLDPDTEYEIRVLLTRPGEGGTGLPGPPLITRTKCAEPMRTPKTLKIAEIQARRIAVDWESLGYNITRCHTFNVTICYHYFRGHNESRADCLDMDPKAPQHVVNHLPPYTNVSLKMILTNPEGRKESEETIIQTDEDVPGPVPVKSLQGTSFENKIFLNWKEPLEPNGIITQYEVSYSSIRSFDPAVPVAGPPQTVSNLWNSTHHVFMHLHPGTTYQFFIRASTVKGFGPATAINVTTNISAPSLPDYEGVDASLNETATTITVLLRPAQAKGAPISAYQIVVEQLHPH",fold increase in adhesive capacity (RPTPκ-overexpressing L6 cells against parental L6 cells),[3],2.7 fold
"secreted alkaline phosphatase (AP) control protein (enzyme, human, UniProt P05187 23-511, looked up, About 50% pure; also called alkaline phosphatase control protein) IIPVEEENPDFWNREAAEALGAAKKLQPAQTAAKNLIIFLGDGMGVSTVTAARILKGQKKDKLGPEIPLAMDRFPYVALSKTYNVDKHVPDSGATATAYLCGVKGNFQTIGLSAAARFNQCNTTRGNEVISVMNRAKKAGKSVGVVTTTRVQHASPAGTYAHTVNRNWYSDADVPASARQEGCQDIATQLISNMDIDVILGGGRKYMFRMGTPDPEYPDDYSQGGTRLDGKNLVQEWLAKRQGARYVWNRTELMQASLDPSVTHLMGLFEPGDMKYEIHRDSTLDPSLMEMTEAALRLLSRNPRGFFLFVEGGRIDHGHHESRAYRALTETIMFDDAIERAGQLTSEEDTLSLVTADHSHVFSFGGYPLRGSSIFGLAPGKARDRKAYTVLLYGNGPGYVLKDGARPDVTESESGSPEYRQQSAVPLDEETHAGEDVAVFARGPQAHLVHGVQEQTFIAHVMAFAACLEPYTACDLAPPAGTTDAAHPG",binding result,[4],no binding (tested: 20 g/ml (so in the source) spotted)

# — patent publication US7056508 (NEW YORK UNIVERSITY, dated 2006)
